Target: NS3h_2a(JFH1) helicase, wild type (Hepatitis C virus genotype 2a, isolate …, UniProt Q99IB8 1196-1661)
Experiment: fluorescence polarization

Chain of NS3h_2a(JFH1) helicase, wild type (Q99IB8 1196-1661): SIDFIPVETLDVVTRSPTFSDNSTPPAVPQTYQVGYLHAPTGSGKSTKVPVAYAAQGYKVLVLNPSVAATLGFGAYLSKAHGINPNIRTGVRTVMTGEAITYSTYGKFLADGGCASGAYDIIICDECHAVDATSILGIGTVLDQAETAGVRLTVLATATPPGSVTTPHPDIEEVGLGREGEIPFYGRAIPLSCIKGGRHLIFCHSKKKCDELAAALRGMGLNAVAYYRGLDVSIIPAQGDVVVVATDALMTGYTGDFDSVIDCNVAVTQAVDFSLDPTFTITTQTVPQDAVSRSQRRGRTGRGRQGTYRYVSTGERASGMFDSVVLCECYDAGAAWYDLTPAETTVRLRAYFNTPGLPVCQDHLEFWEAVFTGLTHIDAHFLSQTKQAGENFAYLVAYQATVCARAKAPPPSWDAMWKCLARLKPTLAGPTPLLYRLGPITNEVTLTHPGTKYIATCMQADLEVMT

## TTTTTTTTTTTTTTT (ssDNA) [Cy5-dT15]
  binding result: binds

— paper PMC8532174
